Entries after “also recorded” stand apart in the source; their conditions may differ. A value given as a limit tells only on which side of the number the result lay.

The test system of series [1] is wildtype C57/BL6 mice. As to the kind of experiment: Macroscopic IRR scoring (0-2) of mice after antibody injection. It counts as in vivo, mouse. Here is the method:
Six to eight weeks-old (17-20 g) female C57/BL6 and Balb C mice were obtained from Taconic or Janvier. Mice were injected i.v with mouse anti-CD32B AT-130-2 IgG2a either as a bulk dose of 200 ug/mouse or as a split-dose with 8 ug/mouse followed by 200 ug/mouse. […]
Mice were monitored post injection with regards to changes in behavior and macroscopic symptoms such as isolation, mobility, and fur condition. Macroscopic IRRs scoring system of 0-2 was set up based on the observations.
These premedications were given i.p 1h prior to injection i.v of mouse anti-CD32B AT-130-2 IgG2a as a bulk dose of 200 ug/mouse. […]
Mice were monitored post injection with regard to changes in behavior and macroscopic symptoms such as isolation, mobility, and fur condition. Macroscopic IRRs scoring system of 0-2 was set up based on the observations: […]

The subject of series [2] is wildtype C57/BL6 mice. The experiment in a line: Platelet count in fresh mouse blood (Vetscan). It counts as in vivo. The conditions noted are these: 40 mg/kg, 1 hour only, 10 mg/kg AT-130-2 IgG2a i.v. Here is the method: Blood samples were collected from vena saphena 20 min post injection of bulk dose of anti-CD32B for instant blood count analysis. For liver enzyme and cytokine analysis, the mice were bled from the aorta under isoflurane anesthesia just prior to sacrifice. Samples for liver enzymes and cytokines were collected 1h and respectively 3h after bulk dose.
Platelet counts were analyzed in fresh blood using a Vetscan (Vetscan HM5 Abaxis, Triolab).
Blood samples were collected from vena saphena for instant blood count analysis. For serum concentrations of AT130-2, liver enzyme and cytokine analysis, the mice were bled from the aorta under isoflurane anesthesia just prior to sacrifice.
Blood samples were collected from vena saphena for instant blood count analysis.

The target in series [3] is mouse CD32B (FcγRIIB) (mouse) (UniProt P08101). As to the kind of experiment: receptor saturation at 10 ug/ml serum concentration of AT-130-2; separate experiments not shown.
Chain of mouse CD32B (FcγRIIB) (mouse) (P08101 30-207 limits assumed): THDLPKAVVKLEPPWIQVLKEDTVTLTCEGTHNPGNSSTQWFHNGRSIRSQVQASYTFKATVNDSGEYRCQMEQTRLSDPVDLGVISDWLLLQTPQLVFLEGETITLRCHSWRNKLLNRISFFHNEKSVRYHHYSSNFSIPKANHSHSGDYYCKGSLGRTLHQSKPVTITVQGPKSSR
Series [4] has as its system peripheral B lymphocytes. The experiment in a line: Peripheral B lymphocyte depletion in human subjects. It counts as in vivo. The conditions noted are these: 100 mg BI-1206.
In series [5] the test system is human subjects with non-hodgkins B-cell lymphoma. As to the kind of experiment: Cytokine analysis of plasma/serum of human subjects (MSD). It counts as in vivo. Here is the method: For cytokine concentrations, frozen plasma samples were thawed and diluted ×2 and ×8. Two parallel set of cytokines were analyzed, the proinflammatory assay with IL-6, IL-8, TNF-α, IFN-γ, IL-10, IL-2 and IL-4 (MesoScale Discovery (MSD) #K15049), and the chemokine assay with MIP-1β, IL-1β, IL-23, IL-12p 70, TARC and VEGF (MSD #K15067). The assays followed the manufacturer's protocol as outlined briefly: 50 μL of sample and calibration standard were added to the appropriate MSD plates and incubated. Following washing, 25 µL of SULFO-TAG detection antibody mixture were added to each well of the corresponding plate. The plates were analyzed on a QuickPlex SQ120 Reader instrument (MSD) and cytokine concentration was calculated using the MSD software (Discovery Workbench, 2013; version LSR-4-0-12).

For series [6], the target named is T1, FcgRIIb (Homo sapiens, UniProt P31994).
T1 construct: FcgRIIb receptor occupancy on peripheral B cells (A) and peripheral B cell levels (B) in human subjects; endogenous in cells; host or cells: peripheral CD19+ B cells in whole blood of human subjects (same method also used on hFcgRIIB transgenic mice)
T1 sequence (P31994 43-310): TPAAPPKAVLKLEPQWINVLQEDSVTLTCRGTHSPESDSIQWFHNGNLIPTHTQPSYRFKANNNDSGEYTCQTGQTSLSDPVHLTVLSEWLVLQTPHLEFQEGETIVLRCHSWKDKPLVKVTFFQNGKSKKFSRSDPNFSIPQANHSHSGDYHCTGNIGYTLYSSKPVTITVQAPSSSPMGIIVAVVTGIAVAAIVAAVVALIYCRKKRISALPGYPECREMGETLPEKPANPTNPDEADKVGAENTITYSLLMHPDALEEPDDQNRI
The experiment in a line: FcgRIIb receptor occupancy on peripheral B cells (flow cytometry). It counts as in vivo. The conditions noted are these: 100 mg BI-1206. The procedure:
The FcgRIIb receptor occupancy in humans and hFcgRIIb transgenic mice was analyzed using flow cytometry. Whole blood from was incubated with either 005-C05 antibody (targeting hFcgRIIb) or anti-hCD32-AF647 antibody. 005-C05 binds the same epitope as BI-1206 but with much lower affinity. In the analysis, the Geo Mean of respectively mAb (005-C05 and anti-human CD32) was acquired on the CD19+ cell population. Receptor occupancy (RO) was calculated using the following equations: RO (%)=((Total Receptors-Normalized Free Receptors)*100)/Total Receptors. All replicates of 005-C05 geo mean of CD19+ cells were then multiplied by the Normalization factor.
(A flow cytometer gives signals particle by particle.)

For series [7], the system named is human subjects with non-hodgkins B-cell lymphoma. The experiment in a line: Platelet counts in clinical studies with BI-1206. The series is classed as in vivo.
Text: (§1) Platelet counts, ALT concentrations and IRR grading were obtained from clinical sites where anayzed and reported according local standard procedures.
Series [8] shares this test system. The experiment in a line: IRR grading in clinical studies with BI-1206. It counts as in vivo. From the text: The IRR that may be prevented or mitigated as described herein and/or that may be predicted with the method described herein may be any IRR. The adverse event denoted “Infusion related reaction” in the CTCAE version 5.0 is used for disorders characterized by adverse reaction to the infusion of pharmacological or biological substances; belonging to the group of “Injury, poisoning and procedural complications”.

Series [9] has the same test system. The experiment in a line: ALT/AST in clinical studies with BI-1206.
Text: as §1
[10] abbreviates: 70 mg BI-1206, subjects 501-001 and 503-002.
The mark [11] stands for this setting: ≥50 mg BI-1206 (FIG. 6: 70-100 mg).

For `CCCCCCCCCCCCCCCCCCNC(=O)OCC(COP(=O)([O-])OCC[n+]1ccsc1)OC` (stereo not drawn) [anti-PAF], the “inhibition of IRRs by other pre-medications” value in series [1] (i.p. 1h prior to i.v. AT-130-2 IgG2a bulk dose 200 ug/mouse) was “None of these pre-medications could inhibit IRRs; also recorded: none of the tested substances (anti-PAF, anti-IL-6, anti-histamine and a leukotrien-antagonist) could prevent the IRRs”.

Take `C[C@H]1C[C@H]2[C@@H]3CCC4=CC(=O)C=C[C@]4(C)[C@@]3(F)[C@@H](O)C[C@]2(C)[C@@]1(O)C(=O)CO` [betamethasone]: the “effect of single premedication on macroscopic symptoms (IRRs)” value in [1] (40 mg/kg, 1 hour only, 10 mg/kg AT-130-2 IgG2a i.v.) is “did not inhibited”. Also, the “grade of macroscopic symptoms after single premedication” value in series [1] (40 mg/kg, 24 hours only, 10 mg/kg AT-130-2 IgG2a i.v.) came out at 1. Moreover, the “effect of single premedication on platelet decrease” value in series [2] was “did not inhibited”.

“AT-130-2 IgG2a (anti-mouse CD32B IgG2a clone AT130-2) (antibody)” yielded a receptor saturation in series [3] of 100%.

Turning to “BI-1206: anti-FcγRIIB antibody with light chain SEQ ID No: 1 and heavy chain SEQ ID No: 2”, in series [4], the “peripheral B lymphocytes” value is given as “transient depletion” and the “time to recovery of peripheral B lymphocytes” value is “approximately 7 days”. The “subjects with transient cytokine release” value in series [5] (70-100 mg BI-1206 (FIG. 6), serum/plasma available) is 7 of 8. Also, in series [5] (≥70 mg BI-1206), the “association of cytokine release with clinical symptoms” value is on record as “not been associated with clinical symptoms”; the “cytokines included in the release” value is “macrophage inflammatory protein (MIP)-1β, tumor necrosis factor (TNF)-α, interleukin (IL)-10, IL-8, IL-6, and IL-4”; the “time of peak cytokine release” value is “immediately after infusion”; the “time to normalization of cytokines” value was ≤ 24 h. Moreover, in series [6], the “FcγRIIB receptor occupancy on peripheral B cells” value is on record as ~100% and the “duration of receptor saturation” value is on record as “up to 48 hours”. Moreover, the platelet decrease result in series [7] (30 mg BI-1206, subject 201-003) was “never been seen”. Besides, the “platelet decrease after premedication with two doses of dexamethasone” value in series [7] (setting [10]) is given as “no/low platelet decrease”. In [7] (setting [11]), the platelets entry is “The decrease is transient”, the seriousness of thrombocytopenia entry is “never serious or associated with bleeding; also recorded: not been serious nor associated with bleeding” and the “time to resolution of most thrombocytopenia episodes” value is “within a week”. Further, in [8] (30 mg BI-1206, subject 201-003, 9 administrations), the “IRR's without two-dose premedication” value was “repeatedly experienced IRR's”. The “grade of IRR's with two doses of dexamethasone” value in [8] (30 mg BI-1206, subject 201-003, 10th administration) came to 1. Besides, in [8] (70 mg BI-1206, subjects 501-001 and 503-002, 12 mg / 4 mg evening before and 20 mg 30 minutes prior), the “IRRs after premedication with two doses of dexamethasone” value is “None of the subjects suffered any IRRs; also recorded: did not suffer IRRs”. Moreover, in series [8] (70 mg BI-1206 with rituximab, subjects 501-001 and 503-002, dexamethasone (20 mg) only 30 minutes prior to infusion), the “grade of IRRs” value is 2-3. The “severity and frequency of IRRs after implementation of two-dose corticosteroid premedication” value in series [8] (70-100 mg BI-1206, study 17-BI-1206-02) was “Significantly lower frequency and severity of IRRs; also recorded: statistically significant reduced severity and frequency of IRRs”. In [8] (i.v., human subjects), the “infusion related reactions (IRRs) during BI-1206 infusions” value is reported as “frequently associated with IRRs; also recorded: Frequent”. The “ALT/AST increase after premedication with two doses of dexamethasone” value in series [9] (setting [10]) is reported as “no ALT/AST increase”. In addition, the “subjects with significant ALT and AST increase” value in series [9] (≥70 mg BI-1206) is recorded as 3 out of 16.

The record behind these values is patent US20240301070A1, “IMPROVING ANTIBODY TOLERABILITY ASSOCIATED WITH INTRAVENOUS ADMINISTRATION” (BIOINVENT INTERNATIONAL AB, priority 2020, published 2024).
